Laboratory results as given in the nanobody polyreactivity screen of Harvey et al. (2022).

Assay: yeast display, Sf9 membrane polyspecificity reagent, FACS + sequencing; frameworks hold sequencing errors
Procedure, shortened: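 Genes from sorted yeast were amplified by colony PCR, read by MiSeq 2 × 250 sequencing and filtered on CDR length. These cells carried a synthetic nanobody library in Saccharomyces cerevisiae BJ5465 and were sorted by FACS into low and high (top ~1%) gates on anti-HA and streptavidin fluorescence. Polyreactivity is labelled according to the gate of origin.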

| Sequence | polyreactivity (PSR sort gate) |
| --- | --- |
| QVQHVESGGGLVQAGGSLRLSCAASGSIFSFNAMGWYRQAPGKERELVASISRNGGSTYYADSVKGRFTISRDNAKNTVYLQMNSLKPEDTAVYYCAVKVRNRRYGYWGQGTQVTVSS | high polyreactivity |
| QVQHVESGGGLVQAGGSLRLSCAASGSIFSIYAMGWYRQAPGKEREFVASITVTDGSTYYADSVKGRFTISRDNAKNTVYLQMNSLKPEDTAVYYCFAVDWYGSGSSYRGSVTYWGQGTQVTVSS | low polyreactivity |
| QVQHVESGGGLVQAGGSLRLSCAASGSIFTSYAMGWSSQAPGKERELVAAITSTGGSTYYADSVKGRFTISRDNAKNTVYLQMNSLKPEDTAVYYCNADGGTPYDYWGQGTQVTVSS | low polyreactivity |
| QVQHVESGGGLVQAGGSLRLSCAASGSIFYQNAMGWYRQAPGKERELVAAISSAGSTYYADSVKGRFTISRDNAKNTVYLQMNSLKPEDTAVYYCARRSSGELGYHIYDYWGQGTQVTVSS | low polyreactivity |
| QVQHVESGGGLVQAGGSLRLSCAASGSIINNYAMGWYRQPPGKERELVADSTYYADSVKGRFTISRDNAKNTVYLQMNSLKPEVTAVYYCAPDDGGGDPEFYWGQGSQVTVSS | high polyreactivity |
| QVQHVESGGGLVQAGGSLRLSCAASGSIISSYAMGRYRQAPGKERELVASISRRGGSTYYADSVKGRFTISRDNAKNTVSLQMNSLKPEDTAVYYCYPSCGPYRYYYCGQGTQVTVSS | low polyreactivity |
| QVQHVESGGGLVQAGGSLRLSCAASGSIIVRYAMGWYRQAPGKERELVASISKRGGSTYYADSVKGRFTISRDNAKNTVYLQMKSLKPDDTAVYYCAAVGYYLVKFDYWGQGTQVTVSS | high polyreactivity |
| QVQHVESGGGLVQAGGSLRLSCAASGSILDGNTMGWYRQSPGKARELVAALTWDCTSTYYADSVKGRFTISRDNAKNSVYLQMNSLKPEDTAVYYCAATKGYSDPSTLYYAYIHYDYWGQGTQVTVSW | low polyreactivity |
| QVQHVESGGGLVQAGGSLRLSCAASGSINSNAMGWYRQARGKERELVAAISGSGSTTYYADSVKGRFTISRDNAKNTVYLKMNSLKPEDTAVYYCARGVYGRGRTERYYWGQGTQVIVSS | high polyreactivity |
| QVQHVESGGGLVQAGGSLRLSCAASGSISKINAMGWYRQAPGKERELVAAINTGDSTYYADSVKGRFTISRDNAKNSVYLQMNSLKPEDSAVYYCAAEGSPTGYDYWGQGTQVTVSS | low polyreactivity |
| QVQHVESGGGLVQAGGSLRLSCAASGSIYYLNAMGWYRQGPGKEWELVAAINRGGSTSYADSVKGRFTISRDNAKNTVYLQMNSLKEADTAVYYCAADHGGVQYSVRYDYWGQGTQLTVSS | low polyreactivity |
| QVQHVESGGGLVQAGGSLRLSCAASGSTFANNAMGWYRQAPGKERELVASITTDGSTNYADSVKGRFTISRDNAKNPVYLQMNSLKPEDSAVYYCAADYHTPSSFAPIELYDYCGQGTQVTVSS | low polyreactivity |
| QVQHVESGGGLVQAGGSLRLSCAASGSTFFKYDMGWYRPAPGTERELVAVITWSGGTTFYADSVKGRFTISRDNANNTVYLQMNSLKPEDTAVSYCAADYYGYRYDYWGQGTQVTVSS | low polyreactivity |
| QVQHVESGGGLVQAGGSLRLSCAASGSTFGGYTMGWSRQAPGTERELVASIRSGGSTYYADSVKGRFTISRDNAKNTVYLQMNSLKPEVTAVYYCAADGRRDRDYWGQGTQVTVSS | high polyreactivity |
| QVQHVESGGGLVQAGGSLRLSCAASGSTFKYYAMGWSRQAPGKERELVAAISLSGGRTSYADSVKGRFTISRDNAKNTVYLQMNSLKPVDTAVYYCAAASYFPRFNYWGQGTQVTVSS | high polyreactivity |
| QVQHVESGGGLVQAGGSLRLSCAASGSTFQYPYTMGWYRQAPRKARELVAVISRTGGSTFYADSVKGRFTISRDNAKNTVYLQMNSLKPEDTAVYYCNARPRYKYPSYDYWGQGTQLTVSS | high polyreactivity |
| QVQHVESGGGLVQAGGSLRLSCAASGSTFRYYTMGWYRQAPGKERELVAAISGSGGITYYADSVKGRFTISRDNAKNTVYLQMNSLKPEDTAVYYCNAGVFYRDDYWGQGTEVTVSS | high polyreactivity |
| QVQHVESGGGLVQAGGSLRLSCAASGSTFSRYTMGWYRQAPGKERELVAGISRRGGITYYADSVKGRFTISRDNAKNTVYLQMNSLKPEDTAVYYCARTDVYWYGYPYDYWGQGTQVTVSS | high polyreactivity |
| QVQHVESGGGLVQAGGSLRLSCAASGSTFWYYDMGGYRQAPGKERELVAAISTRGDSTYYADSVKGRFTISRDNAKNTVYLQMNSLKPEDTAVYYCAKSRQSSGRVRFDYWGQGTQVTVSS | low polyreactivity |
| QVQHVESGGGLVQAGGSLRLSCAASGSTIEDYAMGWYRQAPGKERELVAAISFSGARTYYADSVKGRFTISRDKAKNTVYLQMNSLKPEDTAVYYCNAVSGIVQRYDYWGQGTQVTVSS | high polyreactivity |
| QVQHVESGGGLVQAGGSLRLSCAASGSTLGGYAMGWYRQAPGKERELVAAIRWRDGRTYYADSVKGRFTISRDNPKNTVYLQMNSLKPEDTAVYYCAAQYYLARVSFDYWGQGTQVTVSS | high polyreactivity |

| Sequence | polyreactivity (PSR sort gate) |
| --- | --- |
| QVQHVESGGGLVQAGGSLRLSCAASRFIFVTYAMGCYIQAPGKERELVAAITNSGGTTYYADSVKGRFTISRDNAKNTVYLQMNSLKPEDTAVYYCNKPYGAETAHREFDYWGQGTQVTVSS | low polyreactivity |
| QVQHVESGGGLVQAGGSLRLSCAASVITFYGYTMGWYRQAPGKERELVARIRSRSTSTYYADSVKGRFTISRDNAKNTVDLQMNSLKPEDTAVYYCNADYTNPGSYRKYDYWGQGTQVTVSS | low polyreactivity |
| QVQHVESGGGLVQAGGSLRLSCAATGRTFVYYAMGWYRQPPRKESELVASISSVGTTKYADSVKGRFTISRDNAKNTVYLQMNSLKPEDTAVYYCNNADDYSTVEFDYWGQGTQVTVSS | low polyreactivity |
| QVQHVESGGGLVQAGGSLRLSCASSGFIFYKYVMGWYRQAPGKERELVAAINWSGGSTYYADSVKGRFTISRDNAKNTVYLQMNSLKPDVTAVYYCAALSQYRYDYWGQGTQVTVSS | high polyreactivity |
| QVQHVESGGGLVQAGGSLRLSCASSGRIFSDYAMGWYRPAPGKERELVAAISRSGTRTYYADSVKGRFTISRDNAKNTVYFQMISLKPEDTAVYYCAAKTQSGRAGQEEDYWGQGTQVTVSS | high polyreactivity |
| QVQHVESGGGLVQAGGSLRLSCPASGLTVGGYAMGWYRQAPGKERELVAAISLSGGRTYYADSVKGRFTISRDIPMITVYLLMNSLKPEVSAVYYCAASILVVYLREDYWGQGTQVTVSS | high polyreactivity |
| QVQHVESGGGLVQAGGSLRLSCSASGITFGYYAMGWYRQAPGKERELVAAIRSSGGSTYYADSVKGRFTISRDNAKNTVYLQMKSLKPEDTAVYYCNARYRKSSRPGYEPFERYYWGQGTQVTVSS | high polyreactivity |
| QVQHVESGGGLVQAGGSLRLSCSASGITLPGSAIGWYRQAAGKVREFVAAISTSGGSTYYADSVKGRFTISRDYAKNTVYLQMNSLKPEDTAVYYCNARLVYYSYEEMDYWGQGTQVTVSS | low polyreactivity |
| QVQHVESGGGLVQAGGSLRLSSAASGFTFSRNAMGWYRQAPGKERELVAAIDSGGSTDYADSVKGRFTISRDNAKNTVYLQMNSLKPEDTAVYYCNVDGYYLFVRGYEYWGQGTQLTVSS | low polyreactivity |
| QVQHVESGGGLVQAGGSLRLSSAASGNTINSNAMGWYRQSPGKEREFVAAISGSGSSTYYADSVKGRFTISRDYAKNTVYLQMNSLNPEDTAVYYCAARWGYFGSFDYWGQGTQVTVSS | high polyreactivity |
| QVQHVESGGGLVQAGGSLRLSSAASGRTFFRSAMGWYRQAPGKERELVAAISSRGGSTYYADSVKGRFTISRDNAKNTVYLHMNSLKPEDTAVYYCNAAAFINFILYDYWGQGTQVTVSA | high polyreactivity |
| QVQHVESGGGLVQAGGSLRLSSAASGRTYWPNAMGWYRQAPGKERELVAAISSGGSTNYADSVKGSFTISRDNAKNTVYLQMNSLKPEDTAVYFWSADGQGDKYDYYGHNYWGQGTHVTVSS | low polyreactivity |
| QVQHVESGGGLVQAGGSLRLSSAASGSIIGYYAMGWYRQAHGKERELVAAITWSGGRTYYADSVKGRFTISRDNAKNTVYFQMNSLKPEDTAVYYSNAANSRSAYYNWGHGTQVTVSS | high polyreactivity |
| QVQHVESGGGLVQAGGSQRLSCAASGSTLYYNAMGWYRQAPGKEREFVAGISSSGGRTYYADSVKGRFTISRDNAKNTVYLQMNSLKPEDTAVYYCARVGAIPSRYGYWGQGTQVTVSS | high polyreactivity |
| QVQHVESGGGLVQAGRSLRLSCAASGSIFRDNDMGWYRQATGKEREFVAAINWSGVSTYYADSVKGRFTISRDNAKNTVYLQMNSLKPEDTAVSYCAAGYLKWRRYNYWGQGTQVTVSS | high polyreactivity |
| QVQHVESGGGLVQAGRSLRLSCAASGSIVGNNAMGWYRQAPGKERELVAVITDGGNTYYADSVKGRFTISRDNAKNTVYLEMNSLKPEDTAVYYCNADWWGDSDYWGQGTQVTVSS | low polyreactivity |
| QVQHVESGGGLVQAGRSLRLSCAATGRTFGSNAMGWYRQAPGKERELVAAISLRGGRTYYADSVKGRFTISRDNAKNTVYLQMNSLKPEDTAVYYCNAVHYLYGARSRLTYDYWGQGTQVTVSS | high polyreactivity |
| QVQHVESGGGLVQARGSLRLSCAASASIYPSYAMGWYRQAPGKERELVAVINSGGSTYYADSVKGRFTISRDNAKNTVYLQMNILNPEDTAGYYCAAYRRRYPRFDYWGPGTQVTVSS | high polyreactivity |
| QVQHVESGGGLVQARGSLRLSCAASGSIFFNTMGWYSQAPGKERELVAAITWSGGRTYYADSVKGRFTISRDNAKNTVYLQMNSLKPEDTAVYYCAKDQGSWRYDYWGLGTQVTVSS | low polyreactivity |
| QVQHVESGGGLVQARGSLRLSCSASGGTFSVYPMGWSRQAPVKERELLADISWSDASTYYADSVKGRFTISRDNAKNTVYLQMNSLKPEDTAVYYCAVSRQSGKGGSKELNDYWVQGTQVTVSS | low polyreactivity |
